# Assay results as given in publication PMC10786891, “Massively parallel profiling of RNA-targeting CRISPR-Cas13d”.
# T1: EsCas13d, nuclease-dead (Eubacterium siraeum, UniProt B0MS50, R295A;H300A;R849A;H854A)
# T1 sequence: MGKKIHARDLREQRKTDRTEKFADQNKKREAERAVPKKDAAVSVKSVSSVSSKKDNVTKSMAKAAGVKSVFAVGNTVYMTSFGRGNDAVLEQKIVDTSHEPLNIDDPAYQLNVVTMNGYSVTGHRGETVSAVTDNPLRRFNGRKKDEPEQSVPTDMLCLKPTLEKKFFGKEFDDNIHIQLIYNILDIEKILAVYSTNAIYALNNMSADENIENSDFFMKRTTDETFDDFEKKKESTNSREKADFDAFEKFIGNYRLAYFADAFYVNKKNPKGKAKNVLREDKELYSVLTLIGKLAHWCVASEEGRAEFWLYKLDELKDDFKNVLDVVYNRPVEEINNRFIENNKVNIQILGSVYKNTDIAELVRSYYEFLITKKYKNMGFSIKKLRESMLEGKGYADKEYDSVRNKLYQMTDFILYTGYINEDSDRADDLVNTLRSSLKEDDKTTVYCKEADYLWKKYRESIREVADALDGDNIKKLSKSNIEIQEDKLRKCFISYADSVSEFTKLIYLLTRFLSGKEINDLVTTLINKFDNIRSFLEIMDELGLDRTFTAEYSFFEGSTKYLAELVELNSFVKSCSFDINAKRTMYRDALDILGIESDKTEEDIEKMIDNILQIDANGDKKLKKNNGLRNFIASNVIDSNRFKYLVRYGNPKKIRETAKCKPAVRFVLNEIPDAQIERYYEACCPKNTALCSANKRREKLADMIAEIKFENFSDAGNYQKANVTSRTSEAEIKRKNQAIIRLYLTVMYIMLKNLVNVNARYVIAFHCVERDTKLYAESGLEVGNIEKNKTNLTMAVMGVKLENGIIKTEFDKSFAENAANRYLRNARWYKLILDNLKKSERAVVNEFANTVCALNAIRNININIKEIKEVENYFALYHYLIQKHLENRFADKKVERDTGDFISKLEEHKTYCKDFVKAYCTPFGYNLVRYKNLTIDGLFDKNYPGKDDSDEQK
# Biological target: T1, EsCas13d, nuclease-dead
# Assay: crRNA (strand 1, pre-loaded); Mg2+; 40 mM Tris-HCl pH 7.5, 150 mM NaCl, 6 mM MgCl2, 1 mM DTT, 0.1% Tween-20, 0.2 mg/ml BSA; 25 C; 10 min per concentration, then washed
# Settings: tags: His6-TwinStrep-SUMO cleaved; N-terminal SNAP kept (SNAP-Surface 488); label: 3' end held by stalled T7 RNA polymerase
row,Binder,Kd
1,"target 1 insU 3' of 13,insA 3' of 11 (mixed) RNA 1: CACCCGUGCAAAAAUGCAGGGGUCUAAAACUGAGCGGAUAACCUCUCUAUGG RNA 2: GGGAAUGGAUCCACAUCUACGAAUUCGUACCAUAGAGAGUGUAUAUCCGCUCACCGAGAUCGGAAGAGCACACGU",12.3 ± 1.4 nM
2,"target 1 insC 3' of 13,insA 3' of 5 (mixed) RNA 1: CACCCGUGCAAAAAUGCAGGGGUCUAAAACUGAGCGGAUAACCUCUCUAUGG RNA 2: GGGAAUGGAUCCACAUCUACGAAUUCGUACCAUAGAGAGCGUUAUCCGACUCACCGAGAUCGGAAGAGCACACGU",6.7 ± 1.3 nM
3,"target 1 insC 3' of 8,insA 3' of 4 (mixed) RNA 1: CACCCGUGCAAAAAUGCAGGGGUCUAAAACUGAGCGGAUAACCUCUCUAUGG RNA 2: GGGAAUGGAUCCACAUCUACGAAUUCGUACCAUAGAGAGGUUAUCCCGCAUCACCGAGAUCGGAAGAGCACACGU",12 ± 0.9 nM
4,"target 1 U11A,G13C (mixed) RNA 1: CACCCGUGCAAAAAUGCAGGGGUCUAAAACUGAGCGGAUAACCUCUCUAUGG RNA 2: GGGAAUGGAUCCACAUCUACGAAUUCGUACCAUAGAGACGAUAUCCGCUCACCGAGAUCGGAAGAGCACACGU",42 ± 7 nM
5,"target 1 insG 3' of 9,insU 3' of 5 (mixed) RNA 1: CACCCGUGCAAAAAUGCAGGGGUCUAAAACUGAGCGGAUAACCUCUCUAUGG RNA 2: GGGAAUGGAUCCACAUCUACGAAUUCGUACCAUAGAGAGGUUAGUCCGUCUCACCGAGAUCGGAAGAGCACACGU",14.4 ± 0.9 nM
6,"target 1 U8G,C21U (mixed) RNA 1: CACCCGUGCAAAAAUGCAGGGGUCUAAAACUGAGCGGAUAACCUCUCUAUGG RNA 2: GGGAAUGGAUCCACAUCUACGAAUUCGUACUAUAGAGAGGUUAGCCGCUCACCGAGAUCGGAAGAGCACACGU",8.34 ± 0.26 nM
7,"target 1 insC 3' of 5,insA 3' of 3 (mixed) RNA 1: CACCCGUGCAAAAAUGCAGGGGUCUAAAACUGAGCGGAUAACCUCUCUAUGG RNA 2: GGGAAUGGAUCCACAUCUACGAAUUCGUACCAUAGAGAGGUUAUCCGCCUACACCGAGAUCGGAAGAGCACACGU",30 ± 4 nM
8,"target 1 U3C,G13C (mixed) RNA 1: CACCCGUGCAAAAAUGCAGGGGUCUAAAACUGAGCGGAUAACCUCUCUAUGG RNA 2: GGGAAUGGAUCCACAUCUACGAAUUCGUACCAUAGAGACGUUAUCCGCCCACCGAGAUCGGAAGAGCACACGU",36 ± 4 nM
9,"target 1 G12U,A14U (mixed) RNA 1: CACCCGUGCAAAAAUGCAGGGGUCUAAAACUGAGCGGAUAACCUCUCUAUGG RNA 2: GGGAAUGGAUCCACAUCUACGAAUUCGUACCAUAGAGUGUUUAUCCGCUCACCGAGAUCGGAAGAGCACACGU",25 ± 9 nM
10,"target 1 insU 3' of 21,insA 3' of 13 (mixed) RNA 1: CACCCGUGCAAAAAUGCAGGGGUCUAAAACUGAGCGGAUAACCUCUCUAUGG RNA 2: GGGAAUGGAUCCACAUCUACGAAUUCGUACCUAUAGAGAGAGUUAUCCGCUCACCGAGAUCGGAAGAGCACACGU",21.3 ± 1.3 nM
11,"target 1 U11C,G13C (mixed) RNA 1: CACCCGUGCAAAAAUGCAGGGGUCUAAAACUGAGCGGAUAACCUCUCUAUGG RNA 2: GGGAAUGGAUCCACAUCUACGAAUUCGUACCAUAGAGACGCUAUCCGCUCACCGAGAUCGGAAGAGCACACGU",62 ± 23 nM
12,"target 1 insC 3' of 19,insA 3' of 8 (mixed) RNA 1: CACCCGUGCAAAAAUGCAGGGGUCUAAAACUGAGCGGAUAACCUCUCUAUGG RNA 2: GGGAAUGGAUCCACAUCUACGAAUUCGUACCAUCAGAGAGGUUAUACCGCUCACCGAGAUCGGAAGAGCACACGU",47 ± 4 nM
13,"target 1 insA 3' of 12,insA 3' of 12 (mixed) RNA 1: CACCCGUGCAAAAAUGCAGGGGUCUAAAACUGAGCGGAUAACCUCUCUAUGG RNA 2: GGGAAUGGAUCCACAUCUACGAAUUCGUACCAUAGAGAGGAAUUAUCCGCUCACCGAGAUCGGAAGAGCACACGU",14.3 ± 0.7 nM
14,"target 1 insC 3' of 15,insA 3' of 6 (mixed) RNA 1: CACCCGUGCAAAAAUGCAGGGGUCUAAAACUGAGCGGAUAACCUCUCUAUGG RNA 2: GGGAAUGGAUCCACAUCUACGAAUUCGUACCAUAGAGCAGGUUAUCCAGCUCACCGAGAUCGGAAGAGCACACGU",22.4 ± 1.5 nM
15,"target 1 C4A,U11C (mixed) RNA 1: CACCCGUGCAAAAAUGCAGGGGUCUAAAACUGAGCGGAUAACCUCUCUAUGG RNA 2: GGGAAUGGAUCCACAUCUACGAAUUCGUACCAUAGAGAGGCUAUCCGAUCACCGAGAUCGGAAGAGCACACGU",10 ± 0.9 nM
16,"target 1 A9G,C22U (mixed) RNA 1: CACCCGUGCAAAAAUGCAGGGGUCUAAAACUGAGCGGAUAACCUCUCUAUGG RNA 2: GGGAAUGGAUCCACAUCUACGAAUUCGUAUCAUAGAGAGGUUGUCCGCUCACCGAGAUCGGAAGAGCACACGU",27.3 ± 2.3 nM
17,target 1 complement block 6-11 (mixed) RNA 1: CACCCGUGCAAAAAUGCAGGGGUCUAAAACUGAGCGGAUAACCUCUCUAUGG RNA 2: GGGAAUGGAUCCACAUCUACGAAUUCGUACCAUAGAGAGGAAUAGGGCUCACCGAGAUCGGAAGAGCACACGU,14.5 ± 1.2 nM
18,"target 1 A1G,C7A (mixed) RNA 1: CACCCGUGCAAAAAUGCAGGGGUCUAAAACUGAGCGGAUAACCUCUCUAUGG RNA 2: GGGAAUGGAUCCACAUCUACGAAUUCGUACCAUAGAGAGGUUAUACGCUCGCCGAGAUCGGAAGAGCACACGU",8.7 ± 0.5 nM
19,"target 1 insC 3' of 14,insC 3' of 13 (mixed) RNA 1: CACCCGUGCAAAAAUGCAGGGGUCUAAAACUGAGCGGAUAACCUCUCUAUGG RNA 2: GGGAAUGGAUCCACAUCUACGAAUUCGUACCAUAGAGACGCGUUAUCCGCUCACCGAGAUCGGAAGAGCACACGU",53 ± 9 nM
20,"target 1 C4G,G13A (mixed) RNA 1: CACCCGUGCAAAAAUGCAGGGGUCUAAAACUGAGCGGAUAACCUCUCUAUGG RNA 2: GGGAAUGGAUCCACAUCUACGAAUUCGUACCAUAGAGAAGUUAUCCGGUCACCGAGAUCGGAAGAGCACACGU",7.3 ± 0.9 nM
21,"target 1 insC 3' of 20,insA 3' of 19 (mixed) RNA 1: CACCCGUGCAAAAAUGCAGGGGUCUAAAACUGAGCGGAUAACCUCUCUAUGG RNA 2: GGGAAUGGAUCCACAUCUACGAAUUCGUACCACUAAGAGAGGUUAUCCGCUCACCGAGAUCGGAAGAGCACACGU",9.1 ± 1 nM
22,"target 1 insC 3' of 14,insU 3' of 6 (mixed) RNA 1: CACCCGUGCAAAAAUGCAGGGGUCUAAAACUGAGCGGAUAACCUCUCUAUGG RNA 2: GGGAAUGGAUCCACAUCUACGAAUUCGUACCAUAGAGACGGUUAUCCUGCUCACCGAGAUCGGAAGAGCACACGU",53 ± 25 nM
23,"target 1 insC 3' of 12,insA 3' of 3 (mixed) RNA 1: CACCCGUGCAAAAAUGCAGGGGUCUAAAACUGAGCGGAUAACCUCUCUAUGG RNA 2: GGGAAUGGAUCCACAUCUACGAAUUCGUACCAUAGAGAGGCUUAUCCGCUACACCGAGAUCGGAAGAGCACACGU",9.3 ± 0.8 nM
24,"target 1 insA 3' of 17,insU 3' of 13 (mixed) RNA 1: CACCCGUGCAAAAAUGCAGGGGUCUAAAACUGAGCGGAUAACCUCUCUAUGG RNA 2: GGGAAUGGAUCCACAUCUACGAAUUCGUACCAUAGAAGAGUGUUAUCCGCUCACCGAGAUCGGAAGAGCACACGU",22 ± 4 nM
